Tests used:
[1] = test system: binding of clec14a-CTLD to HUVECs; assay: cell ELISA: hclec14a-CTLD-Fc-HRP binding to HUVECs; type: cell-based, human; conditions: increasing antibody concentration
Method: In order to analyze action mechanisms of deglyco C1 IgG at a molecule-scale, specifically, in angiogenesis, HUVECs were treated with hclec14a-CTLD-Fc-HRP (HRP-labeled hclec14a-CTLD-Fc) in the absence or presence of an increasing concentration of parent antibody IgG or deglyco C1 IgG.

[2] = molecular target: T1, hclec14-CTLD and hclec14a-ECD interaction (Homo sapiens, UniProt Q86T13); assay: ELISA: interaction of hclec14a-CTLD-Fc-HRP with hclec14a-ECD; type: binding; conditions: increasing antibody concentration
T1 construct: hclec14a-CTLD-Fc-HRP was incubated together with purified hclec14a-ECD; hclec14a-ECD (extracellular domain of human clec14a); myc (C)
T1 sequence (Q86T13 33-173 limits assumed): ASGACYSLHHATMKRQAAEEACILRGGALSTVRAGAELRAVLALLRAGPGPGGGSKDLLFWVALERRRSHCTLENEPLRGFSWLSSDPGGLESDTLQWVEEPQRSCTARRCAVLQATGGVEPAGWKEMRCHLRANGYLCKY
Method: In addition, hclec14a-CTLD-Fc-HRP was incubated together with purified hclec14a-ECD in the presence of an increasing concentration of parent antibody IgG or deglyco C1 IgG, or in the absence thereof.

[3] = aggregation and purification amounts of deglycosylated antibodies, before and after φ; type: physicochemical; conditions: based on 100 ml culture
[4] = test system: phosphorylation of VEGFR, Akt and ERK; assay: immunoblot of VEGF-dependent signaling in HUVECs; type: cell-based, human; conditions: VEGF-treated HUVECs
Excerpt: In order to investigate effects of deglyco C1 IgG on VEGF-dependent signaling actions in endothelial cells, VEGF-treated HUVECs were subjected to immunoblot analysis in the presence or absence of deglyco C1 IgG to monitor changes in phosphorylation of VEGFR (VEGF receptor), Akt and ERK (extracellular signal-regulated kinase).

[5] = test system: VEGF-dependent tube formation; assay: VEGF-dependent HUVEC tube formation assay; type: cell-based, human; conditions: 20 μg ml^−1, 18 hours
Method: In order to investigate in vitro effects of deglyco C1 IgG on VEGF-dependent angiogenesis, HUVECs were treated with VEGF in the presence or absence of deglyco C1 IgG, and then HUVEC tube formation assay was conducted. 150 μl of Matrigel was added to a 48-well plate and incubated at 37° C. for 30 minutes. HUVEC (10^5) cultured in EGM-2 were collected, seeded on the Matrigel-coated plate and incubated at 37° C. for 18 hours in the presence or absence of clone 1 IgG, parent antibody IgG, deglycosylated clec14a-CTLD IgG or bevacizumab. HUVECs cultured in VEGF-containing EBM (endothelial cell basal medium) were seeded to the Matrigel-coated plate and incubated at 37° C. for 18 hours in the presence or absence of deglyco C1 IgG (20 μg ml^−1).

[6] = test system: CFPAC-1 cells; assay: tumor cell-derived Matrigel plug angiogenesis assay; type: in vivo, mouse; conditions: single dose of 10 mg/kg, 2 weeks, nude mice
Method: (§1) In order to investigate in vivo effects of deglyco C1 IgG on tumor angiogenesis, tumor cell-derived Matrigel plug angiogenesis assay was conducted on thymus-removed nude mice. SNU182- and CFPAC-1 cells and U87 human glioma cells containing Matrigel were transplanted into thymus-removed nude mice in the presence of deglyco C1 IgG and bevacizumab with a single dose of 10 mg/kg or in the absence thereof. 2 weeks later, the Matrigel plug was removed and the total hemoglobulin content of each group was measured with an ELISA reader.

[7] = test system: SNU182 cells; assay: as above; type: in vivo, mouse; conditions: single dose of 10 mg/kg, 2 weeks, nude mice
Method: as §1

[8] = test system: U87 human glioma cells; assay: as above; type: in vivo, mouse; conditions: single dose of 10 mg/kg, 2 weeks, nude mice
Method: as §1

[9] = test system: HUVEC migration; assay: HUVEC migration (wound healing) assay; type: cell-based, human; conditions: % of MOCK
Method: Genetic mutation introduced during antibody engineering induces unpredicted defects, resulting in deterioration in antibody functions. In order to isolate antibodies for suppressing clec14a-mediated angiogenesis, tube formation and endothelial cell migration assay using human umbilical vein endothelial cells (HUVECs) were conducted in the presence or absence of clone 1 IgG and deglyco C1-C4 IgGs. Among the four types of deglyco IgGs, deglyco C1 IgG was selected as a candidate antibody. […] In addition, it can be seen that deglyco C1 IgG includes desired alterations (N32R/N33C/S34G) in the amino acid sequence in light chain CDR1.
In order to compare in vitro angiogenesis suppression effect between deglyco C1 IgG and bevacizumab, tube formation and migration assay were conducted in the presence or absence of parent antibody IgG, deglyco C1 IgG or bevacizumab as a positive control group.

[10] = test system: HUVECs; assay: HUVEC morphology by immunocytochemistry; type: cell-based, human
Method: In addition, the morphology of HUVEC was evaluated in the presence or absence of deglyco C1 IgG using immunocytochemistry. […] In order to evaluate effects of deglyco C1 IgG on the activity of endothelial cells, which is an initial inflammatory response to a harmful stimulus, HUVECs were treated with deglyco C1 IgG, and expression of an endothelial cell activity marker including VCAM-1 (vascular cell adhesion molecule-1) and ICAM-1 (intercellular cell adhesion molecule-1) was measured to monitor HUVEC activity. Human tumor necrosis factor-alpha (hTNFα) was used as a positive control group for endothelial cell activity.
In order to investigate correlations between tumor angiogenesis and clec14a, first, xenograft tumor models including SNU182 human liver cell or CFPAC-1 human pancreatic cancer cell carcinomas were established, and immunohistochemistry was conducted on commercially available antibodies of clec14a and CD31, which is a well-known endothelial marker protein. Immunohistochemistry was conducted as follows. HUVECs (5×10^4) grown on a 0.1% (w/v) gelatin-coated glass cover slip were incubated in the presence or absence of deglyco C1 IgG for 24 hours at 37° C. […]

[11] = test system: VEGF-dependent microvessel formation; assay: mouse Matrigel plug assay, VEGF-dependent microvessel formation; type: in vivo
Method: In order to observe in vivo efficacies of deglyco C1 IgG on VEGF-dependent angiogenesis, a mouse Matrigel model was established, hemoglobin level was measured as a marker of microvessel formation, and inhibitory activities against microvessel formation of deglyco C1 IgG and bevacizumab were compared by a mouse Matrigel plug assay.

B1: deglyco C1 IgG: deglycosylated clone 1 IgG; light chain CDR1 TGSSSNIGRCGVT (SEQ ID NO: 2), N32R/N33C/S34G (antibody, V domains shown)
VH: EVQLVESGGGLVQPGGSLRLSCAVSGFTFSGYDMSWIRQAPGKGLEWVAGIYPDGGNTYYADSVKGRFTISRDDSKNTFYLQMNSLRAEDTAVYYCARGATWWVLGPFDYWGQGTLVTVSS
VL: DIQLTQSPSSLSASVGDRVTITCTGSSSNIGRCGVTWYQQKPGKAPKLLIYADSHRPSGVPSRFSGSGSGTDFTLTISSLQPEDFATYYCGAWDDSLSGYVFGQGTKVEIKR
In the case of B1, the “suppression of binding of clec14a-CTLD to HUVECs” value [1] is reported as “significantly suppressed”, the “suppression of interaction between hclec14-CTLD and hclec14a-ECD” value [2] is reported as “directly suppressed” and the “Final um, After φ” value [3] is reported as 4.821 mg. The “Final um, Before φ” value [3] was 4.859 mg, the “Fraction1, After φ” value [3] was 0.009 mg and the “Fraction1, Before φ” value [3] was 0.011 mg. The “Fraction2, After φ” value [3] was 3.763 mg, the “Fraction2, Before φ” value [3] was 3.792 mg and the “Fraction3, After φ” value [3] was 0.921 mg. For the same molecule, the “Fraction3, Before φ” value [3] was 0.938 mg, the “Fraction4, After φ” value [3] was 0.128 mg and the “Fraction4, Before φ” value [3] was 0.129 mg. The “VEGF-dependent phosphorylation of VEGFR, Akt and ERK” value [4] was “almost no effect”, the VEGF-dependent tube formation [5] was “removed VEGF-dependent tube formation significantly and almost perfectly” and the “hemoglobin content, CFPAC-1-derived” value [6] was “significantly reduced hemoglobin”. The “hemoglobin content, SNU182-derived” value [7] was “significantly reduced hemoglobin”, the “hemoglobin content, U87-derived” value [8] was “significantly reduced hemoglobin” and the “inhibitory activity against HUVEC migration” value [9] was “most excellent inhibitory activity”. The “inhibitory activity against HUVEC migration” value ([9]; listed as Deglyco C1 IgG) was “inhibited migration to a similar extent to bevacizumab”, the “morphology of HUVECs” value [10] was “did not change the morphology” and the “hemoglobin content (microvessel formation)” value [11] was “significantly reduced a hemoglobin content”.
